Source: patent publication US20140271646A1 (UNITED STATES OF AMERICA AS REPRESENTED BY THE SECRETARY …, published 2014)
Numbering of substitutions follows the chain as printed.

Key:
human IGF-II [1] = target: T1, human IGF-II (human, UniProt P01344 25-91); test: ELISA, Fab on hIGF-II
T1 construct: mature; It was biotinylated for the flow cytometry assays; also called hIGF-II; insulin-like growth factor II

human IGF-II [2] = target: T1, human IGF-II; test: ELISA on hIGF-II
Experimental: (§1) ELISA was performed as described previously (Chen et al., 2008, supra). Bound Fabs and eAds were detected by HRP-conjugated mouse anti-FLAG tag antibody. The antibody-Fc fusion proteins binding to IGF-II directly coated on 96-well plates were detected by HRP-conjugated goat anti-human IgG (Fc-specific) antibody. […] The half-maximal binding (EC₅₀) was calculated by fitting the data to the Langmuir adsorption isotherm.

mouse IGF-II = target: T2, mouse IGF-II (mouse, UniProt P09535 25-91); test: ELISA-based competition assay
T2 construct: also called mIGF-II
T2 sequence (P09535 25-91 limits assumed): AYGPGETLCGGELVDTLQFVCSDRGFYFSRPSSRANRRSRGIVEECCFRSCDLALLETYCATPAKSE

human IGF-II [3] = target: T1, human IGF-II; test: phage library panned on hIGF-II, semELISA screening
Experimental: The PCR products were gel-purified, digested with SfiI, and gel-purified again. The purified fragments were then cloned into pComb3X linearized by SfiI. A phage library was prepared by electroporation of Escherichia coli (E. coli) strain TG1 electroporation-competent cells (Stratagene, La Jolla, Calif.) with desalted and concentrated ligation, as described previously (Chen et al., 2008, J Mol Biol 382:779-89).

human IGF-II [4] = target: T1, human IGF-II; test: ELISA, eAd on hIGF-II
Experimental: as §1

human IGF-II [5] = target: T1, human IGF-II; test: SPR, Biacore X100, antibody amine-coupled to a CM5 chip, hIGF-II as analyte, monovalent binding model
Experimental: ELISA was performed by coating IGF-II on 96-well plates. Bound antibodies were detected by HRP-conjugated goat anti-human IgG (Fc-specific) antibody. SPR analysis was performed on Biacore X100 by according to the manufacturer's instructions.
The binding kinetics of the antibodies was assessed by SPR analysis on Biacore X100 (GE Healthcare) according to the manufacturer's instructions. Briefly, antibodies were diluted in sodium acetate (pH 5.0) and immobilized directly onto a CM5 sensor chip with standard amine coupling method. The reference cell was injected with N-hydroxysuccinimide/1-ethyl-3-(3-dimethyaminopropy) carbodiimide and ethanolamine without injection of IGF-II. IGF-II was diluted with running buffer HBS-EP (100 mM HEPES, pH 7.4, 1.5 M NaCl, 30 mM EDTA, 0.5% surfactant 20). […] The kinetic constants were calculated from the sensorgrams fitted with the monovalent binding model of the BiacoreX100 Evaluation software 2.0.

human IGF-II [6] = target: T1, human IGF-II; test: ELISA, hIGF-II coated on the plate
Experimental: The half-maximal binding (EC₅₀) was calculated by fitting the data to the Langmuir adsorption isotherm.
as §1

T1 sequence (P01344 25-91): as the sequence (P09535 25-91 limits assumed) above, with G3R, G5S, S22G, S32A, A35V, N36S counted along it

B1: Fab m610.27 (Fab, V domains shown)
VH: QVQLVQSGAEVKKPGASVKVSCKASGYTFTSYYMHWVRQAPGQGLEWMGIINPSGGSTSYAQKFQGRVTMTRDTSTSTVYMELSRLRSDDTAVYYCARDVQWLAYGMDVWGQGTTVTVSS
VL: DIQMTQSPSSLSASVGDRVTITCRASQSISSYLNWYQQKPGRAPDLLINAASSLQSGVPSRFSGSGSGTDFTLTISSLQPEDFATYFCQQSYSLPFTFGGGTKVEIKG
notes: Human Fab expressed in E. coli HB2151; also called m610.27 in Fab format
In the case of B1, the EC50 (human IGF-II [1]) is reported as 5 nM.

B2: m610 (Fab, V domains shown)
VH: B1 VH
VL: not shown
notes: also called Fab m610
In the case of B2, the EC50 (human IGF-II [2]) is reported as 20 nM and the binding result (mouse IGF-II) is reported as “binds”.

B3: eAd m630.9 (VHH)
VHH: QVQLVQSGGGLVQPGGSLRLSCAASSFDFDYYEMSWVRQAPGQRLEWVAYISKSGGTKMYADSVKGRFTISRDNSKNTLYLQMNTLRAEDTAMYYCAKDRATCSGGRCYSFYYGMDVWGQGTLVTVSS
notes: Mutant of m630 selected from the random mutagenesis library panned on hIGF-II; not shown: C-terminal hexahistidine tag, and a FLAG tag used for detection
B3: binds (human IGF-II [3]).

B4: eAd m630 (VHH)
VHH: B3 VHH with R107S
notes: Human engineered antibody domain (a single VH domain) expressed in E. coli HB2151; not shown: C-terminal hexahistidine tag, and a FLAG tag used for detection
B4 was tested, and the EC50 (human IGF-II [4]) was 50 nM and the binding result (mouse IGF-II) was “binds”.

B5: eAd m630.1 (VHH)
VHH: B3 VHH with K76R, S104R, R107S, Y113H
notes: as for B3
B5: binds (human IGF-II [3]).

B6: eAd m630.3 (VHH)
VHH: B3 VHH with S104R
notes: not shown: C-terminal hexahistidine tag, and a FLAG tag used for detection
For B6, the EC50 (human IGF-II [4]) was 2 nM and the “fold lower EC50 than m630” value (human IGF-II [4]) was 25 fold.

B7: eAd m630.4 (VHH)
VHH: B3 VHH with D30G
notes: as for B3
B7: binds (human IGF-II [3]).

B8: m660 (bispecific antibody, human IgG1, kappa)
heavy: not shown
light: QVQLVQSGGGLVQPGGSLRLSCAASSFDFDYYEMSWVRQAPGQRLEWVAYISKSGGTKMYADSVKGRFTISRDNSKNTLYLQMNTLRAEDTAMYYCAKDRATCRGGRCYSFYYGMDVWGQGTLVTVSSGGGGSGGGGSGGGGSRTVAAPSVFIFPPSDEQLKSGTASVVCLLNNFYPREAKVQWKVDNALQSGNSQESVTEQDSKDSTYSLSSTLTLSKADYEKHKVYACEVTHQGLSSPVTKSFNRGEC
notes: Produced in 293 free style cells; also called bispecific antibody m660
B8 was tested, and the Kd (human IGF-II [5]) was 0.136 nM and the “fold lower EC50 than IgG1 m610.7” value (human IGF-II [6]) was 3 fold.
